Experimental data taken from US20200009238A1 (UNIVERSITETET I OSLO, published 2020).
Numbering of substitutions follows the chain as printed. Numbers in names are those of the source. Blank lines part the entries; values can stand above or below the molecule they belong to.

Tests used:
[1] = molecular target: MART-1 peptide on HLA-A2, on HLA-A2 positive SupT1 cells expressing Iiwt MART-1; test: flow cytometry; HLA-A2 positive SupT1 cells expressing Iiwt MART-1, 10 nM sTcR, anti-His-PE
[2] = molecular target: MART-1 peptide on HLA-A2, on HLA-A2 positive SupT1 cells expressing Ii L17A/RRP MART-1; test: flow cytometry; HLA-A2 positive SupT1 cells expressing Ii L17A/RRP MART-1, 10 nM sTcR, anti-His-PE
[3] = molecular target: HLA-A2 single-chain trimer (SCT) combined with MART-1 peptide; test: flow cytometry; SupT1 cells expressing SCT-MART-1, 10 nM sTcR 15 min at RT, anti-His-PE
[4] = molecular target: the molecule itself; test: self-association (trimer); western blot of boiled and non-boiled whole cell lysates of transfected Hek cells, anti Ii M-B741
Description: Hek cells were transfected as indicated. After 24 hours, whole cell lysates (WCL) were subjected to 4-20% SDS-PAGE Tris-HEPES-SDS gels, transferred to PVDF membranes and probed with anti Ii antibody, M-B741. The samples were either boiled or non-boiled before gel loading. Ii trimers and monomers are shown. Detection of actin in the WCL was used as loading control using anti-actin antibodies.
In order to function as a chaperone for MHC II antigen presentation, Ii depends on two important features; the ability to trimerize[17] and to traffic to the endosomal pathway. The trimerization of IiRRP/L17A was analyzed by western blotting (WB).

MFI [1]: 105 MFI
percent of cells stained [1]: 2%
MFI [2]: 194 MFI
percent of cells stained [2]: 21%
MFI [3]: 37000 MFI
percent of cells stained [3]: 100%
Molecule: soluble form of DMF5 (MART-1 specific TcR)

B1: human invariant chain Iip33 wild type (other)
chain: MDDQRDLISNNEQLPMLGRRPGAPESKCSRGALYTGFSILVTLLLAGQATTAYFLYQQQGRLDKLTVTSQNLQLENLRMKLPKPPKPVSKMRMATPLLMQALPMGALPQGPMQNATKYGNMTEDHVMHLLQNADPLKVYPPLKGSFPENLRHLKNTMETIDWKVFESWMHHWLLFEMSRHSLEQKPTDAPPKESLELEDPSSGLGVTKQDLGPVPM
notes: Full length protein expressed in transfected Hek cells and analysed in whole cell lysates; also called Iiwt; Ii wt
binding result [4]: binds

B2: invariant chain double leucine mutant Ii L7A/L17A (other)
chain: B1 chain with L7A, L17A
notes: Expressed in Hek cells and analysed in lysates
binding result [4]: binds

B3: invariant chain trafficking mutant Ii RRP/L17A (other)
chain: B1 chain with Q4R, D6P, L17A
notes: Expressed in Hek cells and analysed in lysates; also called IiL17A/RRP; Ii L17A RRP
binding result [4]: binds
